One block for each binder: values may come before it.
Experiments:
[1] = target: human CD40 on the cell surface (human, UniProt P25942 20-277); assay: cell-based or functional assay
[2] = target: T1, Recombinant soluble CD40-his (human, UniProt P25942 21-193); assay: Biacore SPR, CD40-his over captured antibody
T1 construct: Soluble recombinant CD40 with his tag used in Biacore

[3] = target: T2, CD40 Domain 2 peptide, spot 18 (human); assay: SPOTs membrane of 10mer peptides, antibody at 10 µg/ml
T2 construct: 10mer on a SPOTs membrane
T2 peptide: HQHKYCDPNL

[4] = target: T3, CD40 Domain 2 peptide, spot 19 (human); assay: as above
T3 construct: 10mer on a SPOTs membrane
T3 peptide: QHKYCDPNLG

[5] = target: T4, CD40 Domain 2 peptide, spot 20 (human); assay: as above
T4 construct: 10mer on a SPOTs membrane
T4 peptide: HKYCDPNLGL

[6] = target: T5, CD40 Domain 2 peptide, spot 21 (human); assay: as above
T5 construct: 10mer on a SPOTs membrane
T5 peptide: KYCDPNLGLR

[7] = target: T6, CD40 Domain 2 peptide, spot 22 (human); assay: as above
T6 construct: 10mer on a SPOTs membrane
T6 peptide: YCDPNLGLRV

[8] = target: T7, CD40 extracellular Domain 2 GST fusion protein (human, UniProt P25942 61-104); assay: SDS-PAGE and western blot of GST-domain fusion proteins from insect cell supernatant
T7 construct: Secreted from insect cells with a GP67 secretion signal; not shown: glutathione S-transferase (GST) fusion partner
T7 chain: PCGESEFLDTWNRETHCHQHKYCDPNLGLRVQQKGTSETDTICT

[9] = target: T1, Recombinant soluble CD40-his; assay: Biacore SPR: antibody captured on immobilized protein A, CD40-his flowed at varying concentrations; 1:1 model, global fit
[10] = target: T8, CD40 extracellular Domain 2 GST fusion protein (human, UniProt P25942 61-104); assay: Western blot, GST fusion of Domain 2 from insect cell supernatant
T8 construct: Expressed in insect cells with a GP67 secretion signal; not shown: GST fusion partner
T8 chain: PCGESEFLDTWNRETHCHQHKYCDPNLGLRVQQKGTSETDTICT

[11] = target: T9, CD40 extracellular Domain 3 GST fusion protein (human, UniProt P25942 105-144); assay: Western blot, GST fusion of the domain from insect cell supernatant
T9 construct: Expressed in insect cells with a GP67 secretion signal; only the domain stood in the assay; not shown: GST fusion partner
T9 chain: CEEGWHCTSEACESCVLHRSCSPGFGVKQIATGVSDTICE

[12] = target: T10, CD40 extracellular Domain 4 GST fusion protein (human, UniProt P25942 145-187); assay: as above
T10 construct: Expressed in insect cells with a GP67 secretion signal; only the domain stood in the assay; not shown: GST fusion partner
T10 chain: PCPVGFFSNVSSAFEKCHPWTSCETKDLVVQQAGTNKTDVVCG

[13] = target: T11, CD40 extracellular Domain 1 GST fusion protein (human, UniProt P25942 21-60); assay: as above
T11 construct: Expressed in insect cells with a GP67 secretion signal; only the domain stood in the assay; not shown: GST fusion partner
T11 chain: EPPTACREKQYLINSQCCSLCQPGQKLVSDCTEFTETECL

[14] = target: T12, CD40 Domain 2 10mer peptide, spot 18 (HQHKYCDPNL) (human); assay: SPOTs peptide membrane probed with the mAb at 10 µg/ml, anti-human IgG beta-galactosidase secondary; spot 18 listed as positive
T12 peptide: HQHKYCDPNL

[15] = target: T13, CD40 Domain 2 10mer peptide, spot 19 (QHKYCDPNLG) (human); assay: SPOTs peptide membrane probed with the mAb at 10 µg/ml, anti-human IgG beta-galactosidase secondary; spot 19 listed as positive
T13 peptide: QHKYCDPNLG

[16] = target: T14, CD40 Domain 2 10mer peptide, spot 20 (HKYCDPNLGL) (human); assay: SPOTs peptide membrane probed with the mAb at 10 µg/ml, anti-human IgG beta-galactosidase secondary; spot 20 listed as positive
T14 peptide: HKYCDPNLGL

[17] = target: T15, CD40 Domain 2 10mer peptide, spot 21 (KYCDPNLGLR) (human); assay: SPOTs peptide membrane probed with the mAb at 10 µg/ml, anti-human IgG beta-galactosidase secondary; spot 21 listed as positive
T15 peptide: KYCDPNLGLR

[18] = target: T16, CD40 Domain 2 10mer peptide, spot 22 (YCDPNLGLRV) (human); assay: SPOTs peptide membrane probed with the mAb at 10 µg/ml, anti-human IgG beta-galactosidase secondary; spot 22 listed as positive
T16 peptide: YCDPNLGLRV

[19] = target: T4, CD40 Domain 2 peptide, spot 20; assay: SPOTs membrane of 10mer peptides, stripped and reprobed
[20] = target: T5, CD40 Domain 2 peptide, spot 21; assay: as above
[21] = target: T6, CD40 Domain 2 peptide, spot 22; assay: as above
[22] = target: T14, CD40 Domain 2 10mer peptide, spot 20 …; assay: SPOTs peptide membrane stripped and reprobed with the mAb; spot 20 listed as recognized
[23] = target: T15, CD40 Domain 2 10mer peptide, spot 21 …; assay: SPOTs peptide membrane stripped and reprobed with the mAb; spot 21 listed as recognized
[24] = target: T16, CD40 Domain 2 10mer peptide, spot 22 …; assay: SPOTs peptide membrane stripped and reprobed with the mAb; spot 22 listed as recognized

human CD40 on the cell surface, sequence (P25942 20-277): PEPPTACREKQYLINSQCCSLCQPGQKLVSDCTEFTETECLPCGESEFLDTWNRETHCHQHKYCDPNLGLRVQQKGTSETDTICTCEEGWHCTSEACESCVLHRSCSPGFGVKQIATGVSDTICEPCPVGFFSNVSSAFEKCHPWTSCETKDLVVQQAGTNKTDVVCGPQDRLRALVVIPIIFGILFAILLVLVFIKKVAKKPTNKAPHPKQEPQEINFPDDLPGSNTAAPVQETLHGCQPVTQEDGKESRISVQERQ

B1: CHIR-12.12 (antibody, human IgG1, kappa)
heavy: not shown
light: DIVMTQSPLSLTVTPGEPASISCRSSQSLLYSNGYNYLDWYLQKPGQSPQVLISLGSNRASGVPDRFSGSGSGTDFTLKISRVEAEDVGVYYCMQARQTPFTFGPGTKVDIRRTVAAPSVFIFPPSDEQLKSGTASVVCLLNNFYPREAKVQWKVDNALQSGNSQESVTEQDSKDSTYSLSSTLTLSKADYEKHKVYACEVTHQGLSSPVTKSFNRGEC
average IC50 of inhibition of CD40 ligand-induced lymphocyte proliferation, lymphocytes from 6 donors [1]: 0.047 nM | fold difference in the off rate against CHIR-5.9 [2]: 121 fold | fold higher affinity against CHIR-5.9 [2]: 24 fold | binding result [3]: binds | binding result [4]: binds | binding result [5]: binds | binding result [6]: binds | binding result [7]: binds | binding result [8]: binds | Kd [9]: 0.51 nM | koff [9]: 0.000124 s⁻¹ | kon [9]: 241000 M⁻¹ s⁻¹

B2: monoclonal antibody CHIR-12.12 (antibody, human IgG1, kappa)
light: DIVMTQSPLSLTVTPGEPASISCRSSQSLLYSNGYNYLDWYLQKPGQSPQVLISLGSNRASGVPDRFSGSGSGTDFTLKISRVEAEDVGVYYCMQARQTPFTFGPGTKVDIRRTVAAPSVFIFPPSDEQLKSGTASVVCLLNNFYPREAKVQWKVDNALQSGNSQESVTEQDSKDSTYSLSSTLTLSKADYEKHKVYACEVTHQGLSSPVTKSFNRGEC
heavy: not shown
notes: Fully human IgG1 kappa anti-human CD40 mAb; Leader residues (1-20 light, 1-19 heavy) left out as stated
binding result [10]: binds | binding result [11]: no binding | binding result [12]: no binding | binding result [13]: no binding

B3: anti-CD40 monoclonal antibody CHIR-12.12 (antibody, human IgG1, kappa)
light: DIVMTQSPLSLTVTPGEPASISCRSSQSLLYSNGYNYLDWYLQKPGQSPQVLISLGSNRASGVPDRFSGSGSGTDFTLKISRVEAEDVGVYYCMQARQTPFTFGPGTKVDIRRTVAAPSVFIFPPSDEQLKSGTASVVCLLNNFYPREAKVQWKVDNALQSGNSQESVTEQDSKDSTYSLSSTLTLSKADYEKHKVYACEVTHQGLSSPVTKSFNRGEC
heavy: not shown
notes: Fully human IgG1 kappa
binding result [14]: binds | binding result [15]: binds | binding result [16]: binds | binding result [17]: binds | binding result [18]: binds

Continued, values first:

binding result [19]: binds | binding result [20]: binds | binding result [21]: binds | binding result [8]: binds | Kd [9]: 12.2 nM | koff [9]: 0.015 s⁻¹ | kon [9]: 1.24e+06 M⁻¹ s⁻¹
B4: CHIR-5.9 (antibody, human IgG1, kappa)
heavy: not shown
light: AIVMTQPPLSSPVTLGQPASISCRSSQSLVHSDGNTYLNWLQQRPGQPPRLLIYKFFRRLSGVPDRFSGSGAGTDFTLKISRVEAEDVGVYYCMQVTQFPHTFGQGTRLEIKRTVAAPSVFIFPPSDEQLKSGTASVVCLLNNFYPREAKVQWKVDNALQSGNSQESVTEQDSKDSTYSLSSTLTLSKADYEKHKVYACEVTHQGLSSPVTKSFNRGEC
notes: also called mAb CHIR-5.9

binding result [10]: binds | binding result [11]: no binding | binding result [12]: no binding | binding result [13]: no binding
B5: monoclonal antibody CHIR-5.9 (antibody, human IgG1, kappa)
light: AIVMTQPPLSSPVTLGQPASISCRSSQSLVHSDGNTYLNWLQQRPGQPPRLLIYKFFRRLSGVPDRFSGSGAGTDFTLKISRVEAEDVGVYYCMQVTQFPHTFGQGTRLEIKRTVAAPSVFIFPPSDEQLKSGTASVVCLLNNFYPREAKVQWKVDNALQSGNSQESVTEQDSKDSTYSLSSTLTLSKADYEKHKVYACEVTHQGLSSPVTKSFNRGEC
heavy: not shown
notes: Fully human IgG1 kappa anti-human CD40 mAb; Leader residues (1-20 light, 1-19 heavy) left out as stated; also called mAb CHIR-5.9

binding result [22]: binds | binding result [23]: binds | binding result [24]: binds
B6: anti-CD40 monoclonal antibody CHIR-5.9 (antibody, human IgG1, kappa)
light: AIVMTQPPLSSPVTLGQPASISCRSSQSLVHSDGNTYLNWLQQRPGQPPRLLIYKFFRRLSGVPDRFSGSGAGTDFTLKISRVEAEDVGVYYCMQVTQFPHTFGQGTRLEIKRTVAAPSVFIFPPSDEQLKSGTASVVCLLNNFYPREAKVQWKVDNALQSGNSQESVTEQDSKDSTYSLSSTLTLSKADYEKHKVYACEVTHQGLSSPVTKSFNRGEC
heavy: not shown
notes: Fully human IgG1 kappa; also called mAb CHIR-5.9; CHIP-5.9

Reference: patent EP2149585A1 (Novartis Vaccines and Diagnostics, Inc., dated 2010)
